Data: patent publication US9233155B2, “Method of treating solid cancers using anti-c-Met antibody and sorafenib combination therapy” (Samsung Electronics Co., Ltd., priority 2013, dated 2016)

B1: L3-1Y: anti-c-Met antibody: heavy chain variable region of huAbF46-H4-A1, human IgG2 hinge and IgG2 constant region, kappa light chain (antibody)
heavy: EVQLVESGGGLVQPGGSLRLSCAASGFTFTDYYMSWVRQAPGKGLEWLGFIRNKANGYTTEYSASVKGRFTISRDNSKNTLYLQMNSLRAEDTAVYYCARDNWFAYWGQGTLVTVSSASTKGPSVFPLAPCSRSTSESTAALGCLVKDYFPEPVTVSWNSGALTSGVHTFPAVLQSSGLYSLSSVVTVPSSNFGTQTYTCNVDHKPSNTKVDKTVERKCCVECPPCPAPPVAGPSVFLFPPKPKDTLMISRTPEVTCVVVDVSHEDPEVQFNWYVDGVEVHNAKTKPREEQFNSTFRVVSVLTVVHQDWLNGKEYKCKVSNKGLPAPIEKTISKTKGQPREPQVYTLPPSREEMTKNQVSLTCLVKGFYPSDIAVEWESNGQPENNYKTTPPMLDSDGSFFLYSKLTVDKSRWQQGNVFSCSVMHEALHNHYTQKSLSLSPGK
light: DIQMTQSPSSLSASVGDRVTITCKSSQSLLASGNQNNYLAWYQQKPGKAPKMLIIWASTRVSGVPSRFSGSGSGTDFTLTISSLQPEDFATYYCQQSYSRPYTFGQGTKVEIKRTVAAPSVFIFPPSDEQLKSGTASVVCLLNNFYPREAKVQWKVDNALQSGNSQESVTEQDSKDSTYSLSSTLTLSKADYEKHKVYACEVTHQGLSSPVTKSFNRGEC

Columns and labels:
[1] = system: MKN45 gastric cancer cells; assay: Tumor xenograft model of gastric cancer cell line MKN45; type: in vivo, BALB/c nude mice; conditions: sorafenib 3.3 mg/kg P.O. once a day, L3-1Y 1 mg/kg I.V. once a week, day 21
Experimental: (§1) To verify the in vivo effect of the co-administration on tumor growth, a tumor xenograft model using male 5-6 week-old BALB/c nude mice (Pharmalegacy, China) was prepared. The mice were adapted at least one week before inoculation of tumor cells.
(§2) Then, the mice were anesthetized with 1-2% isofurane, and MKN45 gastric cancer cells (JCRB, JCRB0254) were subcutaneously injected into the right flank of the mice in the amount of 5×10^6 cells per mouse. 7 days after, when the average size of the tumor reaches 50 mm^3 or more, the mice were grouped as follows: a group treated with sorafenib (3.3 mg/kg, P.O., once a day), a group treated with L3-1Y (1 mg/kg, I.V., once a week), a group co-treated with L3-1Y (1 mg/kg, I.V., once a week) and sorafenib (3.3 mg/kg, P.O., once a day), and a group (control) treated with vehicle (PBS 0.2 ml, I.V., once a week). Each group consisted of 10 mice.
(§3) The experiment was performed for 4 weeks in total, and tumor size and body weight of the mice were measured twice a week. The tumor volume (V) was calculated by the following formula: V (mm^3)={length of long axis (mm)×(length of short axis (mm))^2}/2.

[2] = system: MKN45 gastric cancer cells; assay: Cell growth inhibition in MKN45 gastric cancer cell line (CellTiter Glo); type: cell-based
Experimental: In particular, RPMI1640 medium (GIBCO) containing 10% FBS was added to a 96 well plate. MKN45 gastric cancer cells (JCRB, JCRB0254) were seeded thereon in the amount of 5,000 cells/well, and incubated overnight at 37° C. After 24 hours (the next day), the incubated cells were treated with (a) L3-1Y (Reference Example 1) alone or (b) L3-1Y and sorafenib. For the single treatment of L3-1Y alone, the concentration of L3-1Y was 0 μg/mL, 0.016 μg/mL, 0.08 μg/mL, 0.4 μg/mL, or 2 μg/mL. For the co-administration of L3-1Y and sorafenib, the concentration of sorafenib was fixed at 4 μM, which is a concentration of IC30 in MKN45 cell line, and the concentration of L3-1Y was 0 μg/mL, 0.016 μg/mL, 0.08 μg/mL, 0.4 μg/mL, or 2 μg/mL.
(§4) At 72 hours after the single treatment or the co-treatment, 100 μL of CellTiter Glo solution (Promega, G7572) was added to each well, and left for 30 minutes at room temperature. The cell number was counted by emission signal, and the emission signal was recorded using Envision 2104 Multi-label Reader (Perkin Elmer).

[3] = system: HT29 colon cancer cells; assay: Tumor xenograft model of colon cancer cell line HT29; type: in vivo, BALB/c nude mice; conditions: for Tumor Inhibition Rate at 21st day (%; compared to vehicle-treated group (0%)): sorafenib 3.3 mg/kg P.O. once a day, L3-1Y 1 mg/kg I.V. once a week, day 21
Experimental: as §1
as §2, with “and HT29 colon” for “and MKN45 gastric”, “cells I(ATCC, HTB-38)” for “cells (JCRB, JCRB0254)”, “mice at” for “mice in”, “week).” for “week). Each group consisted of 10 mice.”
as §3

[4] = system: EBC1 lung cancer cells; assay: Cell growth inhibition in EBC1 lung cancer cell line (CellTiter Glo); type: cell-based; conditions: L3-1Y 0-2 μg/mL alone, sorafenib 4 μM alone, or both; 72 hours
Experimental: (§5) In particular, RPMI1640 medium (GIBCO) containing 10% FBS added to a 96 well plate. EBC1 lung cancer cells (JCRB, JCRB0820) were seeded thereon in the amount of 5,000 cells/well, and incubated overnight at 37° C. After 24 hours (the next day), the incubated cells were treated with (a) L3-1Y (Reference Example 1) alone or (b) L3-1Y and sorafenib. For the single treatment of L3-1Y alone, the concentration of L3-1Y was 0 μg/mL, 0.016 μg/mL, 0.08 μg/mL, 0.4 μg/mL, or 2 μg/mL. For the co-treatment of L3-1Y and sorafenib, the concentration of sorafenib was fixed at 4 μM, and the concentration of L3-1Y was 0 μg/mL, 0.016 μg/mL, 0.08 μg/mL, 0.4 μg/mL, or 2 μg/m L.
as §4

[5] = system: HCC1806 breast cancer cell line; assay: Cell growth inhibition in HCC1806 breast cancer cell line (CellTiter Glo); type: cell-based; conditions: L3-1Y 0-2 μg/mL alone or with sorafenib fixed at 3 μM, 72 hours
[6] = system: HT29 colon cancer cells; assay: Cell growth inhibition in HT29 colon cancer cell line (CellTiter Glo); type: cell-based; conditions: L3-1Y 0-2 μg/mL alone or with sorafenib fixed at 4 μM, 72 hours
Experimental: as §5, with “FBS was” for “FBS”, “HT29 colon” for “EBC1 lung”, “(ATCC, HTB-38)” for “(JCRB, JCRB0820)”, “μg/mL.” for “μg/m L.”
as §4

Molecule	Tumor Inhibition Rate at 21st day (%; compared to vehicle-treated group (0%)) [1] [%]	inhibition at 4 µM ([2]; Homo sapiens, MKN-45, single treatment of sorafenib 4 μM (0 μg/mL of L3-1Y), 72 hours, read-out: cell growth inhibition rate) [%]	concentration of IC30 in MKN45 cell line ([2]; MKN45 cell line) [µM]	Tumor Inhibition Rate at 21st day (%; compared to vehicle-treated group (0%)) [3] [%]	cell growth inhibiting effect [4]	cell growth inhibiting effect ([2]; L3-1Y 0-2 μg/mL alone or with sorafenib fixed at 4 μM, 72 hours)	cell growth inhibiting effect ([2]; L3-1Y 0.08 μg/mL, alone or with 4 μM sorafenib, 72 hours)	tumor inhibiting effect ([3]; same doses as Table 4)	cell death / cell growth inhibiting effect [5]	cell growth inhibiting effect [6]
CNC(=O)c1cc(Oc2ccc(NC(=O)Nc3ccc(Cl)c(C(F)(F)F)c3)cc2)ccn1 [Sorafenib, 4-[4-[[4-chloro-3-(trifluoromethyl)phenyl]carbamoylamino]phenoxy]-N-methyl-pyridine-2-carboxamide]	24.7	30	4	22.1	no cell growth inhibiting effect					
B1	36.2			−0.9	observed	observed	only a little effect	no tumor inhibiting effect	not observed	not observed
